These results are taken from patent US20210063395.

Where two headings read alike, the source gives them in different places.

For data set [1], the system named is lactose protein (as named; milk protein presumably). As to conditions: Gli4-FAM-PEG-rGO/Q-glia fluorescence at 520 nm; specificity control.
Data set [2] concerns gliadin. As to conditions: Gli4-FAM-PEG-rGO/Q-glia fluorescence at 520 nm; differs from Table 1 value.
Data set [3] deals with Q-gliadin (gliadin-BHQ-1 quencher conjugate). To be noted: Gli4-FAM-PEG-rGO fluorescence at 520 nm; SE 0.02.
Data set [4] deals with gliadin. To be noted: Gli4-FAM-PEG-rGO/Q-glia fluorescence recovery at 520 nm, 100 nM aptamer; SE 0.1912; p66 gives about 0.11 ppm.

Turning to “CCAGTCTCCCGTTTACCGCGCCTACACATGTCTGAATGCC [Gli4-FAM]”, the Kd in data set [1] amounted to 13.2 ppm; in the data set with gliadin [2] it was 0.11 ppm; in data set [3] it was 148 ppm; with gliadin [4] it was 0.76 ppm.
